Paper PMC11408855, “The structure of the SufS–SufE complex reveals interactions driving protected persulfide transfer in iron-sulfur cluster biogenesis” (The Journal of Biological Chemistry, 2024)

Assays:
Test in all cases: fluorescence polarisation; 100 nM BODIPY-FL-labeled EcSufE titrated with EcSufS; 50 mM Mops pH 8.0, 150 mM NaCl, 0.1 mg/ml bovine serum albumin, 25 °C, 30 min; absence of cysteine; apparent KD
Conditions in all cases: both partners purified
[1] = target: T1, F350A EcSufS, C-terminal his-tagged (Escherichia coli, UniProt P77444 1-406, F350A, PLP (pyridoxal 5'-phosphate) cofactor)
T1 construct: EcSufS of Escherichia coli, UniProt P77444, with F350A; also called F350A SufS; source: E. coli BL21(DE3)Δsuf, pET44, autoinduction, purified (Ni2+ HisTrap HP); not shown: His tag, C-terminal, kept
T1 sequence: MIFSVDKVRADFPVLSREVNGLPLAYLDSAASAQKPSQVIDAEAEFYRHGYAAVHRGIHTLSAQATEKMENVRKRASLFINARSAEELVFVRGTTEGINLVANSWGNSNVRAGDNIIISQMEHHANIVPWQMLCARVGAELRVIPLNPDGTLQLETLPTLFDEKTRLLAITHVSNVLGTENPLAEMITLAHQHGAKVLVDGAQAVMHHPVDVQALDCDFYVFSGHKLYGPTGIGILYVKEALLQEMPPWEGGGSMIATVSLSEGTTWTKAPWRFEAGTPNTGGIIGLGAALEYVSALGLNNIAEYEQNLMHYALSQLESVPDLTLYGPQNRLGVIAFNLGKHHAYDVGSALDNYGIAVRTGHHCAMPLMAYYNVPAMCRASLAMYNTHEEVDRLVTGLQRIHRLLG

[2] = target: T2, H343A EcSufS, C-terminal his-tagged (Escherichia coli, UniProt P77444 1-406, H343A, PLP (pyridoxal 5'-phosphate) cofactor)
T2 construct: EcSufS of Escherichia coli, UniProt P77444, with H343A; also called H343A SufS; source: E. coli BL21(DE3)Δsuf, pET44, autoinduction, purified (Ni2+ HisTrap HP); not shown: His tag, C-terminal, kept
T2 sequence: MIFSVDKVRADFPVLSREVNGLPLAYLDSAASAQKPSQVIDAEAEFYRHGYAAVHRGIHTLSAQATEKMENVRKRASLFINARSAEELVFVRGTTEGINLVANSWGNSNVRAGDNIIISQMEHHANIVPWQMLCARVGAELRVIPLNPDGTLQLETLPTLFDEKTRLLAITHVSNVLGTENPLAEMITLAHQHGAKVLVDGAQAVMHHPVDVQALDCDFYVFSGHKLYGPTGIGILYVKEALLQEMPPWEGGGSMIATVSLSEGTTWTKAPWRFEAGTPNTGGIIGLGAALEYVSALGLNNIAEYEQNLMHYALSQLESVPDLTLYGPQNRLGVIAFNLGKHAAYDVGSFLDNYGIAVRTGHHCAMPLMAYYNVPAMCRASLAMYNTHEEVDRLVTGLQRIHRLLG

[3] = target: T3, Y345A EcSufS, C-terminal his-tagged (Escherichia coli, UniProt P77444 1-406, Y345A, PLP (pyridoxal 5'-phosphate) cofactor)
T3 construct: EcSufS of Escherichia coli, UniProt P77444, with Y345A; also called Y345A SufS; source: E. coli BL21(DE3)Δsuf, pET44, autoinduction, purified (Ni2+ HisTrap HP); not shown: His tag, C-terminal, kept
T3 sequence: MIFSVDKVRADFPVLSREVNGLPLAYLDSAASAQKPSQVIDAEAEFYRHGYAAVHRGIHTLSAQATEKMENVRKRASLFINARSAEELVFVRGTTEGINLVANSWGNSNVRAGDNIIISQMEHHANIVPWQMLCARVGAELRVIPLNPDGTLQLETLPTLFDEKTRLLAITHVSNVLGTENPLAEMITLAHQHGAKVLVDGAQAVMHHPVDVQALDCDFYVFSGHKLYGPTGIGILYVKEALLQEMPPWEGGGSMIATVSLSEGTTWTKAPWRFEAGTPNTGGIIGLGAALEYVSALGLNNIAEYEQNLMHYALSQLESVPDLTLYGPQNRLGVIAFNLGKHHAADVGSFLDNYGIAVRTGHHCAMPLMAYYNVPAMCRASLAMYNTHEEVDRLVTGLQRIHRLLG

[4] = target: T4, N353A EcSufS, C-terminal his-tagged (Escherichia coli, UniProt P77444 1-406, N353A, PLP (pyridoxal 5'-phosphate) cofactor)
T4 construct: EcSufS of Escherichia coli, UniProt P77444, with N353A; also called N353A SufS; source: E. coli BL21(DE3)Δsuf, pET44, autoinduction, purified (Ni2+ HisTrap HP); not shown: His tag, C-terminal, kept
T4 sequence: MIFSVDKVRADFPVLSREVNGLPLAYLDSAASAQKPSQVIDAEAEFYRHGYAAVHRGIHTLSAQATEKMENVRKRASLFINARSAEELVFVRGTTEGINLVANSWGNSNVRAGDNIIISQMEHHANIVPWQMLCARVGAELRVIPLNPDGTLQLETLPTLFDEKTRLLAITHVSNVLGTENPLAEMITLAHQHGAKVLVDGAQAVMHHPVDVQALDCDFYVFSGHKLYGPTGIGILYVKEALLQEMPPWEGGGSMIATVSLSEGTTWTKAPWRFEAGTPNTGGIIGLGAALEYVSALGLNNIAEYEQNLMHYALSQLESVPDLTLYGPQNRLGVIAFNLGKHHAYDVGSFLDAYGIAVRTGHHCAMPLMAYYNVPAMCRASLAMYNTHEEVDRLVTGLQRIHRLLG

- Kd [1]: > 40 µM
- Kd [2]: > 20 µM
- Kd [3]: > 20 µM
- Kd [4]: 60 nM
B1: BODIPY-FL-labeled C51A/E107C EcSufE (natural protein, Escherichia coli)
chain: MALLPDKEKLLRNFLRCANWEEKYLYIIELGQRLPELRDEDRSPQNSIQGAQSQVWIVMRQNAQGIIELQGDSDAAIVKGLIAVVFILYDQMTPQDIVNFDVRPWFCKMALTQHLTPSRSQGLEAMIRAIRAKAAALS
modifications: BODIPY-FL maleimide label (labeling efficiency 60 to 80%)
notes: EcSufE, transpersulfurase SufE of Escherichia coli, UniProt P76194, with C51A and E107C; also called "WT" EcSufE (double mutant background); C51A/E107C EcSufE control
